Measurements taken from the supplement of paper PMC12855868.

B1: library; numbered along this chain (parent)
chain: MAAAGGARLLRAASAVLGGPAGRWLHHAGSRAGSSGLLRNRGPGGSAEASRSLSVSARARSSSEDKITVHFINRDGETLTTKGKVGDSLLDVVVENNLDIDGFGACEGTLACSTCHLIFEDHIYEKLDAITDEENDMLDLAYGLTDRSRLGCQICLTKSMDNMTVRVPETVADARQSIDVGKTS

Variants of: B1
Test: scaled log2 fold change in cell abundance, elesclomol vs control (0 = silent mean, 1 = nonsense mean) (scaled log2 ratio); higher = higher viability under elesclomol (loss of FDX1 cuproptosis function)
Conditions: glucose 10 mM
Method: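 Deep mutational scan of full-length human FDX1: a pooled saturation-mutagenesis ORF library (every residue 2-184 mutated to all 19 amino acids plus stop, and silent codons where available) was expressed by lentivirus in FDX1-knockout ABC1 (14 days) or HEK293T (11 days) cells grown with elesclomol (ES) or DMSO control. Variant abundance came from ORF sequencing. The log2 fold change (ES vs control, mean of duplicates) was centred on the silent-variant mean (0) and scaled to the nonsense-variant mean (1). Higher values mean greater viability under ES, i.e. loss of FDX1 function in cuproptosis.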

[1] = with ABC1 FDX1 KO, elesclomol 5 nM, 14 days
[2] = with HEK293T FDX1 KO, elesclomol 40 nM, 11 days
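Note: variant abundance is its share of total variant reads in each endpoint sample, from next-generation sequencing of the integrated ORF PCR-amplified out of genomic DNA.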

Variant	scaled log2 fold change [1]	scaled log2 fold change [2]
K84M	0.138	
K84N	0.0469	0.28
K84L	0.349	-0.439
K84E	0.218	-0.39
K84D	-0.0908	0.0439
K84C	0.225	0.851
K84A	-0.0494	0.375
K84F	0.195	0.127
K84H	0.0255	0.273
K84I	0.197	1.03
K84G	-0.452	-0.00112
G83I	0.557	0.712
G83V	0.0583	0.224
G83T	0.0201	-0.4
G83W	0.275	-0.151
G83C	0.0146	0.00891
G83L	0.777	1.06
G83P	0.126	-0.345
G83N	0.304	-0.106
G83E	0.881	0.975
G83S	0.0697	-1.34
G83F	0.576	0.231
G83H	0.285	-0.572
G83R	0.756	0.39

Variant	scaled log2 fold change [1]	scaled log2 fold change [2]
G83D	0.697	0.804
G83K	0.72	0.427
G83Y	0.73	0.383
G83A	0.184	-0.672
G83Q	0.455	0.716
G83M	0.483	0.859
L79I	-0.0225	-0.761
L79F	0.0893	-0.166
L79T	-0.0538	
L79C	0.0853	-0.242
L79Q	-0.224	-0.128
L79S	0.0141	
L79G	0.145	1.18
L79V	0.047	1.39
L79W	-0.0916	0.138
L79E	0.0989	-0.00345
L79K	0.0188	0.977
L79D	0.287	-0.0667
L79R	-0.538	-0.117
L79N	0.26	0.247
L79M	-0.15	-0.649
L79Y	-0.343	0.278
L79P	0.634	0.299
L79H	-0.594	0.119

Variant	scaled log2 fold change [1]	scaled log2 fold change [2]
L79A	0.253	0.232
T81K	0.0566	0.178
T81L	0.127	0.885
T81I	0.266	0.81
T81Y	-0.015	-0.0662
T81W	-0.0129	-0.543
T81C	0.0149	-0.28
T81R	0.181	0.0327
T81G	0.204	-1.09
T81E	0.273	0.0361
T81V	0.0264	-0.0523
T81Q	-0.159	-0.00467
T81P	0.103	1.32
T81A	0.0513	1.11
T81S	-0.82	1.14
T81H	0.282	-0.297
T81F	0.141	
T81D	-0.11	-0.616
T81M	-0.27	0.26
T81N	0.308	0.885
T78M	-0.54	-0.0932
T78N	-0.0446	-0.273
T78G	-0.0398	0.179
T78I	-0.229	

Variant	scaled log2 fold change [1]	scaled log2 fold change [2]
T78R	-0.905	-0.932
T78L	-0.709	0.584
T78V	0.108	-0.249
T78S	0.0645	0.487
T78W	-0.127	-0.938
T78P	-0.0243	-0.366
T78H	-0.378	1.01
T78Y	-0.386	-0.209
T78Q	0.0403	-0.00407
T78K	0.447	-1.09
K82A	0.109	
K82H	-0.223	-0.0273
K82C	0.296	0.165
K82G	-0.688	-0.137
K82L	0.0365	-0.76
K82V	-0.0519	0.989
K82F	-0.531	-0.243
K82S	-0.449	
K82R	-0.619	-0.611
K82M	0.172	
K82Y	-0.328	-0.154
K82W	0.0928	-0.0187
K82Q	-0.471	
K82E	0.0245	-0.309

Variant	scaled log2 fold change [1]	scaled log2 fold change [2]
K82N	-0.873	0.352
K82D	-0.58	-0.293
K82P	-0.285	-0.31
K82I	0.215	0.419
K82T	-0.0344	0.0849
T80L	-0.289	-0.147
T80W	0.177	0.805
T80H	0.295	
T80M	0.0647	
T80S	-0.407	
T80P	0.231	-0.0181
T80N	0.128	
T80C	0.0285	-0.291
T80E	0.301	-0.0351
T80K	0.183	-0.131
T80D	-0.0431	-0.13
T80Q	-0.0848	0.379
T80V	0.126	-0.0679
T80I	0.231	0.056
T80F	0.473	-0.712
T80A	-0.231	
T80Y	0.26	-0.203
T80G	0.0761	-0.279
T80R	-0.0268	-0.512
